The assay has as its target Tetanus neurotoxin (Clostridium tetani, UniProt P04958). Kind of assay: cryo-EM structure; epitopes of TT104 and TT110 on TeNT determined via cryo-EM. To be noted: both partners purified.

Sequence of Tetanus neurotoxin (P04958 whole entry): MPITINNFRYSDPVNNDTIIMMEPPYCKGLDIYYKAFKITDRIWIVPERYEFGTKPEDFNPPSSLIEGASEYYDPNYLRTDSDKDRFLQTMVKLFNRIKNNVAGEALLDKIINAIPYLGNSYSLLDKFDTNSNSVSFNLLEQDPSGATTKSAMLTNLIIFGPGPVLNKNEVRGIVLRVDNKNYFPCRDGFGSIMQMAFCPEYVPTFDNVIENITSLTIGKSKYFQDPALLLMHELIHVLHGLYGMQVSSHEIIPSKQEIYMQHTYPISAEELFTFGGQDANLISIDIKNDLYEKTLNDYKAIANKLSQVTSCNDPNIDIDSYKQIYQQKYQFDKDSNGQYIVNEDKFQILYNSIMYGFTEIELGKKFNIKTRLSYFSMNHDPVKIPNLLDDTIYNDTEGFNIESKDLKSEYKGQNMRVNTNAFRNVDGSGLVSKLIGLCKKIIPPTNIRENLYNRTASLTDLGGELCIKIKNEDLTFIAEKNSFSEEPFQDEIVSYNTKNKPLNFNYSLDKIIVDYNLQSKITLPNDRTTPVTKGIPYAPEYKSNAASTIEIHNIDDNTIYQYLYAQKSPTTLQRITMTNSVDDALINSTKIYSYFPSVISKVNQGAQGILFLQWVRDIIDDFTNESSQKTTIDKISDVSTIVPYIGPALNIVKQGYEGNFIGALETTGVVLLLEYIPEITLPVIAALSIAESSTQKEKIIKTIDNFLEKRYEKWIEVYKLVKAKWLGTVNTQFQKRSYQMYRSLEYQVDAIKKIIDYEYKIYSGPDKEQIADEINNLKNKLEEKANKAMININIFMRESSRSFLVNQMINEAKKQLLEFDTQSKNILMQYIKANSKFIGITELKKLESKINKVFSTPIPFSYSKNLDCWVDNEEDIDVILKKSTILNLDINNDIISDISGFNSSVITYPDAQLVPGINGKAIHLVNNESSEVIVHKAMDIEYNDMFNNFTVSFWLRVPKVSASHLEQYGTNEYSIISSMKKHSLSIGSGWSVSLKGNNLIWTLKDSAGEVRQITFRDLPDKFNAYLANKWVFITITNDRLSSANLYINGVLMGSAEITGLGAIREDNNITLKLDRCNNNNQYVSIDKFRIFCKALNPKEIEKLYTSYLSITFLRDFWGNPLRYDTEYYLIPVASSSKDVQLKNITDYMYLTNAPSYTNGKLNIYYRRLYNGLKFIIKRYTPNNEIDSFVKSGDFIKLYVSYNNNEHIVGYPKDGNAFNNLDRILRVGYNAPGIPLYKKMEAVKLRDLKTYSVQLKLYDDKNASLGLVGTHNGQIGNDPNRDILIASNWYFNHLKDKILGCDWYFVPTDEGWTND

B1: TT110 human monoclonal antibody (antibody, V domains shown)
VH: QVQLMQSGAEVQKPGASVKVSCQASGFTLNNYYIHWLRQAPGQGFEWMGIFNPSSGTRTYAQKFQGRISMTADASTTTLYMELSGLTSEDAGVYFCARIGGSTYGRLMTYYFDHWGQGTVVAVSS
VL: EVVLTQSPVTLSVSPGGRGTLSCRASRSISTTLAWYQQKPGQAPRLLIYGASTRATGIPARFTGSGSGTEFTLTISSLQSEDFAVYYCQQYNDWPVTFGQGTQVEVK
notes: also called humAb TT110
On to B1, for which the binding result is given as “binds”.

B2: TT104 human monoclonal antibody (antibody, V domains shown)
VH: QLQLQESGPGLVRPSETLSLTCSVSDDSMGSSTYYWAWIRQPPGKGLEWIGNVYYNGVTYYNSSLESRLTLSIDPSKNQFSLILSSVTAADTAVYYCARQADNWFDPWGQGTLVTVSS
VL: EIMMTQSPATLSVSPGERATLSCRASQSVGSDLAWYQQKPGQAPRLLIYGASYRATGIPARFSGGGSGTEFTLTISSMQSEDFAVYYCQQYYNWPPYTFGQGTKVEIK
notes: also called humAb TT104
For the molecule B2, the binding result was “binds”.
